Assays:
Format in all cases: biochemical
[1] = Synthesis of N-lauroylamino acid / N-lauroylamino acid derivative using purified acylamino acid synthetase, UPLC-MS detection; parameters: key: +: Detected; −: Not detected; conditions: +ATP
Protocol: 0.2 mL of a reaction solution containing 50 mM Tris-HCl, 5 mM amino acid or D-amino acid derivative, 5 mM sodium laurate, 10 mM ATP, 10 mM MgCl2, 1 mM DTT, 200 μg/mL of the purified enzyme, pH 8.0 was incubated at 25° C. for 24 hours. After completion of the reaction, 0.8 mL of the reaction stop solution (1% (v/v) phosphoric acid, 75% (v/v) methanol) was added, and the mixture was filtrated through the filter followed by being subjected to the UPLC-MS analysis to detect a signal of a molecular weight corresponding to an N-lauroyl-amino acid or an N-lauroyl-amino acid derivative. The condition for the UPLC-MS analysis is as described in Example 2.
As a result of the UPLC-MS analysis, the signal of the molecular weight corresponding to the N-lauroyl-amino acid or the N-lauroyl-amino acid derivative was confirmed in the reaction solution containing the enzyme in combination with the amino acid or the amino acid derivative shown in Table 5 below.

[2] = Quantification of produced N-acylamino acid (UV 210 nm) using purified acylamino acid synthetase; conditions: 5 mM L-Asp, 5 mM sodium fatty acid, 200 μg/mL enzyme, 25° C., 24 hours
Protocol: 0.1 mL of a reaction solution containing 50 mM Tris-HCl, 5 mM amino acid, 5 mM sodium fatty acid, 10 mM ATP, 10 mM MgCl2, 1 mM DTT, 200 μg/mL of the purified enzyme, pH 8.0 was incubated at 25° C. for 24 hours. As amino acids, L-Asp was used in AtGH3-6, OsGH3-8, AtGH3-5, AtGH3-12, and Gly or L-Ala was used in CfHP. After completion of the reaction, 0.4 mL of the reaction stop solution (1% (v/v) phosphoric acid, 75% (v/v) methanol) was added, and the mixture was filtrated through the filter followed by being subjected to the UPLC-MS analysis to quantify the produced N-acylamino acid by detection at UV 210 nm. The condition for the UPLC-MS analysis is as descried in Example 2. As a result of the analysis, 3.9 mM of Nα-capryloyl-L-aspartic acid, 4.5 mM of Nα-caprinoyl-L-aspartic acid and 2.2 mM of Nα-lauroyl-L-aspartic acid were detected when AtGH3-6 was used; 4.3 mM of Nα-capryloyl-L-aspartic acid, 4.6 mM of Nα-caprinoyl-L-aspartic acid and 3.5 mM of Nα-lauroyl-L-aspartic acid were detected when OsGH3-8 was used; 4.1 mM of Nα-capryloyl-L-aspartic acid, 4.6 mM of Nα-caprinoyl-L-aspartic acid and 2.5 mM of Nα-lauroyl-L-aspartic acid were detected when AtGH3-5 was used; 1.6 mM of Nα-capryloyl-L-aspartic acid, 0.6 mM of Nα-caprinoyl-L-aspartic acid and 0.2 mM of Nα-lauroyl-L-aspartic acid were detected when AtGH3-12 was used; 4.5 mM of Nα-capryloylglycine, 4.6 mM of Nα-caprinoylglycine, 0.1 mM of Nα-lauroylglycine, 3.1 mM of Nα-capryloyl-L-alanine, 3.6 mM of Nα-caprinoyl-L-alanine and 0.4 mM of Nα-lauroyl-L-alanine were detected when CfHP was used.

[3] = Synthesis of N-caprinoyl-amino acid derivative, N-caprinoyl-D-amino acid and N-caprinoyl-peptide using purified acylamino acid synthetase, UPLC-MS detection; parameters: key: +: Detected; −: Not detected; conditions: +ATP
Procedure, shortened: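 Purified enzyme (50 μg/mL) was incubated with 5 mM sodium caprate, 5 mM amino acid derivative, D-amino acid or peptide, 10 mM ATP, 10 mM MgCl2 and 1 mM DTT in 50 mM Tris-HCl, pH 8.0, for 24 h at 25 °C. After acidic methanol stop, UPLC-MS looked for the mass of the N-caprinoyl product.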

[4] = Synthesis of N-acylamino acids from various fatty acids using purified acylamino acid synthetase, UPLC-MS detection; parameters: key: +: Detected; −: Not detected
Procedure, shortened: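 Purified enzyme (200 μg/mL) with 5 mM amino acid, 5 mM sodium fatty acid (3 mM palmitate or stearate, plus 10% methanol), 10 mM ATP, 10 mM MgCl2, 1 mM DTT in 50 mM Tris-HCl pH 8.0, shaken 24 h at 25 °C. Amino acid varied by enzyme; product mass detected by UPLC-MS (ESI-negative).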

B1: AtGH3-12: 4-substituted benzoates-glutamate ligase GH3.12 from Arabidopsis thaliana, His-tagged (protein, listed as Arabidopsis thaliana)
chain: MKPIFDINETFEKQLKDLTSNVKSIQDNLLEEIITPNTKTEYLQRFLIDRFDKELFKKNVPIVSYEDIKPYLDRVVNGESSDVISARTITGFLLSSGTSGGAQKMMPWNNKYLDNLTFIYDLRMQVITKHVKGVEEGKGMMFLFTKQESMTPSGLPARVATSSYFKSDYFKNRPSNWYYSYTSPDEVILCPNNTESLYCHLLCGLVQRDEVVRTGSIFASVMVRAIEVLKNSWEELCSNIRSGHLSNWVTDLGCQNSVSLVLGGPRPELADTIEEICNQNSWKGIVKRLWPNTKYIETVVTGSMGQYVPMLNYYCNDLPLVSTTYGSSETTFGINLDPLCKPEDVSYTFMPNMSYFEFIPMDGGDKNDVVDLEDVKLGCTYEPVVTNFAGLYRMRVGDIVLVTGFYNNAPQFKFVRRENVVLSIDSDKTNEEDLFKAVSQAKLVLESSGLDLKDFTSYADTSTFPGHYVVYLEVDTKEGEEKETAQFELDEEALSTCCLVMEESLDNVYKRCRFKDGSIGPLEIRVVRQGTFDSLMDFFISQGASTGQYKTPRCIKSGKALQVLETCVVAKFFSI
modifications: His-tag
notes: 4-substituted benzoates-glutamate ligase GH3.12 from Arabidopsis thaliana, His-tagged
- signal of molecular weight corresponding to N-lauroyl amino acid ([1]; substrates Gly and sodium laurate): −
- signal of molecular weight corresponding to N-lauroyl amino acid ([1]; substrates L-Ala and sodium laurate): −
- signal of molecular weight corresponding to N-lauroyl amino acid ([1]; substrates L-Arg and sodium laurate): −
- signal of molecular weight corresponding to N-lauroyl amino acid ([1]; substrates L-Asp and sodium laurate): +
- signal of molecular weight corresponding to N-lauroyl amino acid ([1]; substrates L-Glu and sodium laurate): −
- signal of molecular weight corresponding to N-lauroyl amino acid ([1]; substrates L-Lys and sodium laurate): +
- signal of molecular weight corresponding to N-lauroyl amino acid ([1]; substrates L-Thr and sodium laurate): +
- signal of molecular weight corresponding to N-lauroyl amino acid ([1]; substrates β-Ala and sodium laurate): −
- Nα-caprinoyl-L-aspartic acid detected [2]: 0.6 mM
- Nα-capryloyl-L-aspartic acid detected [2]: 1.6 mM
- Nα-lauroyl-L-aspartic acid detected [2]: 0.2 mM
- signal of molecular weight corresponding to N-caprinoyl compound ([3]; substrates Carnosine and sodium caprate): +
- signal of molecular weight corresponding to N-caprinoyl compound ([3]; substrates D-Ala and sodium caprate): +
- signal of molecular weight corresponding to N-caprinoyl compound ([3]; substrates D-Asp and sodium caprate): +
- signal of molecular weight corresponding to N-caprinoyl compound ([3]; substrates D-Cys and sodium caprate): −
- signal of molecular weight corresponding to N-caprinoyl compound ([3]; substrates D-Glu and sodium caprate): +
- signal of molecular weight corresponding to N-caprinoyl compound ([3]; substrates D-Ile and sodium caprate): +
- signal of molecular weight corresponding to N-caprinoyl compound ([3]; substrates D-Lys and sodium caprate): +
- signal of molecular weight corresponding to N-caprinoyl compound ([3]; substrates L-Asp-L-Phe and sodium caprate): +
- signal of molecular weight corresponding to N-caprinoyl compound ([3]; substrates L-Gly-L-Gly and sodium caprate): +
- signal of molecular weight corresponding to N-caprinoyl compound ([3]; substrates Sarcosine and sodium caprate): +
- signal of molecular weight corresponding to N-caprinoyl compound ([3]; substrates Taurine and sodium caprate): +
- signal of molecular weight corresponding to N-acylamino acid ([4]; substrates L-Asp and Capric acid): +
- signal of molecular weight corresponding to N-acylamino acid ([4]; substrates L-Asp and Caproic acid): +
- signal of molecular weight corresponding to N-acylamino acid ([4]; substrates L-Asp and Caprylic acid): +
- signal of molecular weight corresponding to N-acylamino acid ([4]; substrates L-Asp and Lauric acid): +
- signal of molecular weight corresponding to N-acylamino acid ([4]; substrates L-Asp and Linoleic acid): +
- signal of molecular weight corresponding to N-acylamino acid ([4]; substrates L-Asp and Palmitic acid): +
- signal of molecular weight corresponding to N-acylamino acid ([4]; substrates L-Asp and myristic acid): +

Source: patent US12281340B2, “Method of producing N-acyl-amino group-containing compound” (AJINOMOTO CO., INC., priority 2018, dated 2025)
